In patent US8822407B2, “Preparation of conjugates comprising adenine derivatives and allergenic proteins and their use for specific immunotherapy of allengenic diseases” (Universita' Degli Studi di Firenze, priority 2010, dated 2014):

Assays:
TLR8 = target: T1, TLR8 (Homo sapiens, UniProt Q9NR97); test: TLR8-transfected HEK293 cells, NF-kB luciferase reporter; format: cell-based; conditions: R-848 2 μg/ml; data not shown
T1 construct: expressed in transfected cells; host or cells: HEK293 (transient Nucleofection, Amaxa)
T1 sequence (Q9NR97 27-1041): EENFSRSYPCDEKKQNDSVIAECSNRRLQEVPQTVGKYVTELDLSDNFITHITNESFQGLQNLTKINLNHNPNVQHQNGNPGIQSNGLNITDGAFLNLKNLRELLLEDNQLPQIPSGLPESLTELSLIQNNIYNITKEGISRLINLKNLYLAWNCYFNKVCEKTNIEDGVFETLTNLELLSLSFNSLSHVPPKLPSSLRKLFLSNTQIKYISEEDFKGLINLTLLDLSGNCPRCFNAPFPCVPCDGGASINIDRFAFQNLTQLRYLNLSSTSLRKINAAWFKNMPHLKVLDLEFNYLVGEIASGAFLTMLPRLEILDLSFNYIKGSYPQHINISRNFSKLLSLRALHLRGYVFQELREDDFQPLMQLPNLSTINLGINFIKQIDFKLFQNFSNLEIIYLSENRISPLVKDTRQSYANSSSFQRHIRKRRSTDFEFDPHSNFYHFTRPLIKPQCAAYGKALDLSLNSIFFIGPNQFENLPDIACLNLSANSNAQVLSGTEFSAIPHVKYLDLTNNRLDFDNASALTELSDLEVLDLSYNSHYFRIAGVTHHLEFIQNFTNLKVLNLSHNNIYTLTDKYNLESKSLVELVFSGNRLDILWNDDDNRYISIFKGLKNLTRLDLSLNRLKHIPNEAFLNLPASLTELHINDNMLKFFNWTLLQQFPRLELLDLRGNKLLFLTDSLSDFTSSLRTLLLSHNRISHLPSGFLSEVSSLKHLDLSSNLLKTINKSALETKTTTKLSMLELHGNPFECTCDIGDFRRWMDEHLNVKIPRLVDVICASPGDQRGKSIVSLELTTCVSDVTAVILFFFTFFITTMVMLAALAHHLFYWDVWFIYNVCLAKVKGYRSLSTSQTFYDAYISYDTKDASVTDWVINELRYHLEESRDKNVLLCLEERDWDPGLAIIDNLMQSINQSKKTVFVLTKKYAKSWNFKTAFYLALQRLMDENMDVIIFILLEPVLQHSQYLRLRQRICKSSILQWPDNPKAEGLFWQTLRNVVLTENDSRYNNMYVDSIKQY
Description: HEK293 cells are detached by trypsin from the plastic surface of the culture bottle, extensively washed with calcium and magnesium-free PBS, counted and adjusted at the concentration 1×10^6 cells/tube in polypropylene V-bottomed tubes. After the final wash, the cells are pelleted and 100 μl transfection buffer (Amaxa) is added together with […], TLR7, TLR8 or TLR9-encoding and ELAM-1 promoter NF-kB luciferase reporter plasmids. The mixture thus obtained is transferred in special cuvettes and transient transfection is obtained in a special apparatus which is able to directly introduce genetic material into the nucleus (Nucleofection®, Amaxa GmbH). The cells are then recovered and cultured at 1×10^5/ml in 48-flat bottomed plates in E-MEM medium plus 5% foetal calf serum for 18 hrs. […] Finally the luciferase activity is measured in the cellular lysates by a commercial kit (Promega).

purified B cells = test: B cell activation (tritiated thymidine incorporation); format: cell-based, human; conditions: for Stimulation index (mean ± SE): B cell proliferation
Description: Circulating mononuclear cells (MNC) are isolated by Ficoll-Hypaque density gradient from buffy coats of healthy donors (Servizio Immunotrasfusionale e terapie cellulari, Azienda Ospedaliero Universitaria Pediatrica A. Meyer, Firenze). 200×10^6 MNC are then separated using the commercial CD19 isolation kit (Miltenyi) by the addition of 400 μl iron microbead-bound anti-CD19 monoclonal antibody followed by magnetic separation on LS column. 20×10^6 B cells are isolated by positive selection and are extensively washed by the use of calcium- and magnesium-free PBS and cultured in triplicates at the concentration of 1×10^6/ml/well in complete medium plus 10% foetal calf serum in 96-U plates. […] Plates are incubated in humidified atmosphere at 37° C. for 72 hrs and at the end 0.5 μCi tritiated thymidine is added to each well for further 16 hrs. The incorporated radioactivity is measured as already described in step (f) of Example 4.

[1] = test system: NF-κB p50 subunit in purified CD14+ cells; test: NF-κB activation: nuclear p50 in purified CD14+ cells; format: cell-based, human; conditions: 2 hrs, allergens and conjugates 10 μg/ml, R-848 2 μg/ml
Description: The tubes are then incubated for 2 hrs in 5% CO2 humidified atmosphere at 37° C. and then washed with 10 ml PBS, centrifuged at 1500 rpm repeating the treatment thrice and the cellular pellet finally dried by the use of a micropipette and stored at −80° C. up to the assay. […] Two different protein amounts (0.5 and 2 μg) were incubated in 96w plates coated by the immobilized oligonucleotide containing the activated NF-κB consensus site (5′-[…]-3′), followed by the incubation with an antibody recognizing an epitope of the NF-κB p50 subunit. An HRP-conjugated secondary antibody was added to single wells and the colorimetric read-out was quantified by spectrophotometry. Values are reported as Optical Density. […] For the specificity of the assay, a wild-type consensus oligonucleotide was used as a competitor for NF-κB binding.

[2] = test system: allergen-specific T cell lines; test: Functional phenotype of allergen-specific cells with different ratios between allergen and modified adenine; format: cell-based, human; conditions: T cell lines from atopic donors, Example 5 step d

**Q.** How did the “NF-κB expression in TLR8-transfected HEK293 cells” value (TLR8) turn out when `CCOCc1nc2c(N)nc3ccccc3c2n1CC(C)(C)O` [Conj R-848, reference compound] was run?
**A.** Its value is “able to induce NF-κB expression”.

**Q.** What about the “proliferation of purified B lymphocytes (in words)” value (purified B cells; thymidine incorporation) of the same molecule?
**A.** Its value is “high levels of incorporation of radioactive thymidine”.

**Q.** With `Nc1nc(SCCCC(=O)ON2C(=O)CCC2=O)nc2c1nc(O)n2Cc1ccccc1` [SA-26E, 4-(6-Amino-9-benzyl-8-hydroxy-9H-purin-2-ylsulfanyl)-butyric acid 2,5-dioxo-pyrrolidin-1-yl ester] as the molecule, how does the “p50 nuclear expression (NF-κB activation)” value [1] read?
**A.** The value was “completely inactive”.

B1: nDer p2: purified natural allergen Der p2, major allergen from the house dust mite Dermatophagoides pteronyssinus (protein, UniProt P49278 18-146, looked up)
Mite group 2 allergen Der p 2: DQVDVKDCANHEIKKVLVPGCHGSEPCIIHRGKPFQLEAVFEANQNTKTAKIEIKASIDGLEVDVPGIDPNACHYMKCPLVKGQQYDIKYTWNVPKIAPKSENVVVTVKVMGDDGVLACAIATHAKIRD
modifications: natural purified
notes: purified natural allergen Der p2, major allergen from the house dust mite Dermatophagoides pteronyssinus
**Q.** Which results are given for B1?
**A.** % of cells expressing IFN-gamma+ [2]: 5%; % of cells expressing IL-4+ [2]: 55.5%; p50 nuclear expression (NF-κB activation) [1]: inactive; Stimulation index (mean ± SE) (purified B cells; concentration 0.5 μg/ml): 1.6 ± 0.4; Stimulation index (mean ± SE) (purified B cells; concentration 2.5 μg/ml): 1.7 ± 0.2; Stimulation index (mean ± SE) (purified B cells; concentration 10 μg/ml): 1.7 ± 0.1
